Source: patent publication US20070299013

Test system: pentapeptide DYDYQ (Asp695-Tyr696-Asp697-Tyr698-Gln699 of human factor Va heavy chain)

human thrombin
activation of factor V by thrombin (cleavage at Arg709), SDS-PAGE and immunoblot, thrombin preincubated with 100 µM peptide: the pentapeptide is a potent inhibitor of factor V activation by thrombin
